Experimental data reported in the supplement of paper PMC10126150.
± gives the standard deviation of the averaged measurements.

Test system: ATP
Test: switch fluorescence ratio, 500 uM ATP over buffer (Cy3 cluster intensity, sum of 5 cycles each) (fold (ratio)); higher = stronger signal-on switching upon ATP binding; sequences stand for … in TCGTCGGCAGCGTCAGATGTGTATAAGAGACAGTTTTTTTTTTTTTTTTTTTTTTTTT…TC
Details: aptamer strand: ATP DNA aptamer (quencher-CACCTGGGGGAGTATTGCGGAGGAAGG + anchor), 100 nM annealed; ATP concentration: 500 uM
Method in brief: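 Per cluster, summed Cy3 intensity from the target cycles was divided by that from the buffer cycles to give the fluorescence ratio, then averaged per switch-domain sequence. Clusters outside 100-1000 RFU were excluded. The Cy3-labelled switching-strand clusters, on a modified Illumina MiSeq flow-cell, were annealed to 100 nM quencher-labelled ATP aptamer and imaged in selection buffer, then after 15 min with 500 uM ATP at 22 °C, for five cycles with NaOH stripping and re-annealing between them.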
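Further: ATP exposure 15 min at 22 °C before imaging.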

Sequence | switch fluorescence ratio
GAATAACTGG | 0.993 ± 0.084
TACTGAGCAG | 1.019 ± 0.003
TACGAGCTGA | 1.027 ± 0.0097
AGGGGTGCTG | 0.975 ± 0.039
TTTCGAGGAC | 0.983 ± 0.011
GTAATGCTTA | 1.011 ± 0.005
GGTTTTCCGG | 1.01 ± 0.046
TAAGAGTACA | 1.07 ± 0.011
TTGGGACGGG | 0.994 ± 0.022
TTTTGAGGTT | 0.983 ± 0.034
GGGATCTGAA | 0.969 ± 0.026
AAACCTATGG | 0.986 ± 0.055
AAACGGGGAT | 0.992 ± 0.011
CACAGGGCGG | 1.04 ± 0.017
TATTGGGTGG | 0.9919 ± 0.0053
TTGATTGGTC | 1.05 ± 0.019
TGCAGGCCAA | 1.08 ± 0.026
CGGTAGGAAT | 1.018 ± 0.0077
TATGTGGGTG | 1.01 ± 0.035
ATAAGGGCGT | 1.001 ± 0.0065
TATCCGTGCT | 1 ± 0.029
AATGGATTTC | 1 ± 0.029
GTTGACGGTG | 0.982 ± 0.039
AGGCATTGGG | 1.0154 ± 0.00096
AATTGGTAAA | 0.9816 ± 0.0044

Sequence | switch fluorescence ratio
TCAATAGACC | 1.05 ± 0.011
CGGTATGAGG | 0.9 ± 0.11
TTTAAGTCTC | 1.001 ± 0.0062
AGTCCGGGTA | 1.08 ± 0.17
AGGAAATATT | 1.01 ± 0.012
GGGGATTTGA | 0.995 ± 0.029
AAGACATGGG | 1.002 ± 0.0021
CTCGGCTTGT | 1.05 ± 0.044
GCTTTTTGTC | 1.06 ± 0.013
GGGCAAAGGG | 0.999 ± 0.041
AATACTTGGG | 0.966 ± 0.01
ACTGGGGGGG | 0.995 ± 0.03
AGGGTGTCCA | 0.973 ± 0.028
CTTGGGGGTC | 0.989 ± 0.014
TGCAAATTCG | 0.999 ± 0.022
ACTCAATTTT | 1.05 ± 0.03
AGGGGTCGGC | 0.986 ± 0.016
AAGAGGCTGG | 0.99 ± 0.024
CCGTAGCGTT | 6.12 ± 1.5
AAAATTTCAA | 1.011 ± 0.0042
AATGTCTCTC | 0.998 ± 0.058
GTTGTTTTAG | 0.992 ± 0.019
TTTATTCCGT | 0.999 ± 0.037
TTGGTTTACC | 0.957 ± 0.011
GTTTTGGTAG | 1.001 ± 0.0067

Sequence | switch fluorescence ratio
ATACGTTCGG | 1.01 ± 0.0015
TTGTACATCC | 1.03 ± 0.013
GCATGAGCGG | 1.01 ± 0.013
GGAGGGATGG | 1.13 ± 0.2
AGGGAATAGA | 0.989 ± 0.0094
TGATCGCTGG | 1.02 ± 0.042
TTAACTACCG | 1.042 ± 0.0084
GGATGGTGCA | 0.94 ± 0.062
GTGTTAGGGC | 0.9919 ± 0.0057
TACTTCAAGG | 1.02 ± 0.03
AGGTTTGGGC | 0.997 ± 0.061
GCTTGATGAA | 1.034 ± 0.0013
TAAAGGTATG | 1.02 ± 0.013
GTCGATTAGT | 0.944 ± 0.033
GAGGCCGCTA | 1.84 ± 0.043
CGTGGGATAA | 1.01 ± 0.023
GAGTTCAGGA | 1 ± 0.021
TATGAATGTG | 0.991 ± 0.022
GGGCCAACGA | 1.042 ± 0.0014
CGATATCGAG | 0.98 ± 0.051
CAGGTCGCGG | 1.005 ± 0.006
GATTTGATTG | 1.002 ± 0.0033
CCAACCAAGG | 1.16 ± 0.056
CAAAAATTTT | 0.986 ± 0.026
GAGGTTTAAG | 0.957 ± 0.052

Sequence | switch fluorescence ratio
GCGTTGGCCA | 1.01 ± 0.016
TGAACAAATG | 1.04 ± 0.11
GGTATTGGTA | 1.13 ± 0.25
AGGGATTATT | 1.02 ± 0.016
CGTGCCCAGC | 1.01 ± 0.025
TAGATTGTA | 1.01 ± 0.029
AGTTGTTGGG | 0.998 ± 0.013
GCGGAATGCT | 1.2 ± 0.32
CTCTAATATC | 1.47 ± 0.091
AAGGGAATAC | 2.6 ± 0.82
TCGGGATGTT | 0.989 ± 0.027
TGATACAAGC | 1.05 ± 0.032
AAGATTTTAT | 0.977 ± 0.019
CGGGAGGTAT | 1 ± 0.012
AACCAATCGA | 1.04 ± 0.05
AGTAATTTTT | 1 ± 0.018
GTGGTTTATA | 1.01 ± 0.021
CCATTGGGTT | 1.02 ± 0.031
GATACTGCGC | 1.16 ± 0.087
CGCGGGGGTG | 1.03 ± 0.024
TGAGTGTCTG | 0.966 ± 0.019
ACCTAAAGGA | 1.02 ± 0.016
TGGGTGCATG | 0.9897 ± 0.0049
GCCGGGGGTG | 1.04 ± 0.023
CTTTCTGGGG | 0.991 ± 0.017

Sequence | switch fluorescence ratio
CAGGGTAGTG | 1.01 ± 0.045
ATAGTAGGTT | 1.01 ± 0.017
GGGGTATTTG | 0.99 ± 0.012
TGCCATTGTT | 0.942 ± 0.01
TCAAATTTTG | 0.999 ± 0.021
GTGGTATCGG | 0.989 ± 0.029
TATCGAATTA | 0.987 ± 0.017
GGGCACTGGT | 1.04 ± 0.032
CCGGTTACAG | 1.07 ± 0.0078
GATGAGGGTA | 0.976 ± 0.034
CGAGTAAACG | 1.02 ± 0.017
GTGTAATAGG | 0.9713 ± 0.0056
GGGCTTGAAG | 1.01 ± 0.017
TGTGGTGTTT | 0.984 ± 0.036
AGGATGGACC | 1.01 ± 0.024
TCAAGAGGCG | 1.019 ± 0.0029
TGGGGTTGCG | 0.981 ± 0.032
AACGGCAGGT | 1.03 ± 0.013
CAAATTATGG | 1.03 ± 0.01
GGCCCAGGGA | 1.18 ± 0.18
GCTGGGGTTT | 0.996 ± 0.043
ACCAAGCTTT | 1.04 ± 0.016
TAAAGTTTTT | 1.002 ± 0.0088
TTATCTTGTT | 0.988 ± 0.03
ACTCGCCCCA | 1.46 ± 0.084

Sequence | switch fluorescence ratio
GTTATAAAAA | 1.01 ± 0.07
TATTTAGATG | 1.01 ± 0.018
TAAGGCGAAC | 1.03 ± 0.015
TATGTGATGT | 0.981 ± 0.032
GTTGTGTTAA | 0.997 ± 0.014
TTGGGGTGAA | 1.1 ± 0.14
GGAGGATTTA | 0.984 ± 0.042
AACGTGAGGG | 0.989 ± 0.051
TTACCCTTAG | 1.06 ± 0.028
TTTGTAGCCG | 1.01 ± 0.061
CAAGTATATT | 0.968 ± 0.032
CGGCTGGTCA | 0.984 ± 0.021
TGTTATACAT | 1.01 ± 0.024
TTTTATAATA | 1.05 ± 0.034
TCAGGGTAGC | 1.02 ± 0.02
TGGGACCCGT | 1.04 ± 0.038
TAACGGGTGG | 1.01 ± 0.037
CTTAGGCGGT | 1.038 ± 0.0062
ATCGTAATGG | 1.04 ± 0.038
CAATTGCGGG | 0.988 ± 0.055
ACGACAGCAG | 1.39 ± 0.033
TTCCATCGCC | 1.53 ± 0.14
GACAGAAGGC | 1 ± 0.052
GCCGGAGGGA | 0.989 ± 0.038
TCCGGGGGCA | 1.59 ± 0.027

Sequence | switch fluorescence ratio
CACTAATGGT | 1.073 ± 0.0072
CGGCTGGCGA | 1.01 ± 0.059
AATTTAGGGT | 1.01 ± 0.028
CATTGTAAGT | 1 ± 0.025
CTTATGACAG | 0.988 ± 0.011
TTTTTAGTGT | 1.01 ± 0.035
AGGTAATCTT | 0.979 ± 0.016
CTTGGTGGGA | 1.04 ± 0.012
AACAAATGGG | 1.02 ± 0.052
GGTCGTGTAA | 0.991 ± 0.061
GAATGGGGTC | 0.976 ± 0.011
AAGTGATGGG | 0.988 ± 0.045
TGATAGGTGC | 1.19 ± 0.014
TTAAAACGGG | 0.969 ± 0.037
GGTTCCCACT | 0.9919 ± 0.0045
TGGTCAAAAA | 0.9972 ± 0.0036
GAGATGAGCG | 0.997 ± 0.035
GGGTTGTATG | 0.997 ± 0.038
AGTTTGGTCT | 0.984 ± 0.034
TAGCCTGTTG | 0.9667 ± 0.002
GTGAGTGTCA | 1 ± 0.03
GGCTTTGCCC | 0.9669 ± 0.0028
GGGAGAAGAG | 0.979 ± 0.036
AGGTTCAACG | 1.01 ± 0.028
TATTGTAATT | 1.01 ± 0.014

Sequence | switch fluorescence ratio
AGTGCGTCTC | 0.975 ± 0.012
TACCTTCGTT | 1.04 ± 0.073
TTACTTCTCA | 1 ± 0.011
TTCGGTAAAT | 1.03 ± 0.033
ATGTGTGTAT | 1.12 ± 0.2
AGGGAGAGTC | 1.036 ± 0.0025
ACAATGAGTT | 0.985 ± 0.015
ACCGGGGTTT | 1 ± 0.051
TTGTTACGGT | 0.981 ± 0.041
AAGATTTTGT | 0.995 ± 0.014
TTTTGTAGCA | 1.1 ± 0.03
TGCAAGAGTT | 1.01 ± 0.014
TGGAGTGTTT | 0.94 ± 0.021
GATGCACCGA | 1.06 ± 0.036
GGGATTCGGG | 1.02 ± 0.022
TCGCCCGAGC | 1.09 ± 0.11
TCAGGCGGC | 0.992 ± 0.017
CGGGGGGGG | 1 ± 0.059
TTGGATGGGT | 0.959 ± 0.05
TGGGGGACTG | 1.05 ± 0.054
GCTCCCTTTC | 1.84 ± 0.08
AGGACGGAAT | 1.091 ± 0.0016
CGGGTTGAG | 0.9967 ± 0.0066
AAAAAAAGCG | 0.979 ± 0.058
TTTGTTACCG | 0.995 ± 0.012
